Measured values reported in patent US20260029420A1 (Hoffmann-La Roche, published 2026).

How the values were obtained:
Human_CB2-pANITA3.1 = target: T1, Human_CB2-pANITA3.1 (human); assay: Western blot, cell lysate
T1 construct: Expressed on transfected HEK293 cells; tested on fixed cells (IF) or in lysate (WB, IP); also called pANITA3.1 hCB2 (JB175); hCB2 (JB175)
Procedure: For Western blot analysis, cells were collected using enzyme free dissociation buffer (Cell dissociation buffer enzyme-free Hanks'-based, Gibco), and washed two times with PBS. To prepare cell lysate, 10⁶ cells were lysed with 0.1 ml of lysis buffer (1% NP40, 10% glycerol, 2 mM EDTA, 137 mM NaCl, 20 mM TrisHCl, pH8, Protease Inhibitors) for 10 min on ice. The lysate was cleared by centrifugation at 20′000 g for 5 min. For SDS-PAGE cell lysate was resolved on precast 4-12% gradient gels (NuPAGE® Novex 4-12% Bis-Tris Gel, Invitrogen) with MES running buffer according to the manufacturer's directions. The separation of proteins was visualized by Colloidal Blue staining. The proteins were electrophoretically transferred to nitrocellulose membrane using a dry-blotting system (iBlot, Invitrogen). After blocking the membrane for 16 h in blocking buffer (5% Milk in PBS) at 4° C., specific proteins were detected with appropriate dilutions of mAbs in blocking buffer for 1 h at approximately 20° C. The membrane was then washed four times for 5 minutes in blocking buffer and incubated with horseradish peroxidase conjugated anti-mouse IgG mAb (GAM/IgG (g-chain)/HRP, Sigma, A9917) diluted 1:10'000 in blocking buffer at approximately 20° C. for 1 h. After washing again, blots were developed using ECL Western blotting detection reagents (ECL Western Blotting Substrate, Pierce) to visualize bands.

human CB2 (full length) = target: T2, human CB2 (full length) (human, UniProt P34972 1-360); assay: flow cytometry, CHO-DUKX_HOMSA_CNR2_Clone_90_CRE-Luc cells against CHO-DUKX parental cells
T2 construct: whole, on cells; In Western blot and immunoprecipitation the protein stood in cell lysate; also called hCB2; CHODukx CRE hCB2 Cl.90
Text: For detection an F(ab)₂ goat-anti Mouse IgG₃ PE antibody was used.

Mouse_CB2-pANITA3.1 = target: T3, Mouse_CB2-pANITA3.1 (mouse); assay: immunofluorescence, fixed cells
T3 construct: Fusion of the mouse CB2 N-terminal extracellular domain with mouse glycophorin A transmembrane and His-tagged cytoplasmic domains; Expressed on transfected HEK293 cells; also called pANITA3.1 mCB2 (JB176); mCB2 (JB176)
Procedure: (§1) For IF analysis, methanol-fixed cells were incubated for 20 min in a humid chamber at 37° C. with the respective hCB2 and mCB2 clones. After rinsing twice and washing for 15 min in PBS, 125 μg/ml FITC-conjugated […] anti-mouse IgG antibodies (RAM/IgG (H+L)/FITC, Nordic

mouse CB2 (full length) = target: T4, mouse CB2 (full length) (mouse, UniProt P47936 1-347); assay: immunofluorescence, fixed cells
T4 construct: whole, on cells; In Western blot and immunoprecipitation the protein stood in cell lysate; also called mCB2; CHO-A2 mCB2
Procedure: as §1

human CB1 (full length) = target: T5, human CB1 (full length) (human, UniProt P21554 1-472); assay: immunofluorescence, fixed cells
T5 construct: whole, on cells; In Western blot and immunoprecipitation the protein stood in cell lysate; also called hCB1; CHODukx CRE hCB1 Cl.20
Procedure: as §1

T4 sequence (P47936 whole entry): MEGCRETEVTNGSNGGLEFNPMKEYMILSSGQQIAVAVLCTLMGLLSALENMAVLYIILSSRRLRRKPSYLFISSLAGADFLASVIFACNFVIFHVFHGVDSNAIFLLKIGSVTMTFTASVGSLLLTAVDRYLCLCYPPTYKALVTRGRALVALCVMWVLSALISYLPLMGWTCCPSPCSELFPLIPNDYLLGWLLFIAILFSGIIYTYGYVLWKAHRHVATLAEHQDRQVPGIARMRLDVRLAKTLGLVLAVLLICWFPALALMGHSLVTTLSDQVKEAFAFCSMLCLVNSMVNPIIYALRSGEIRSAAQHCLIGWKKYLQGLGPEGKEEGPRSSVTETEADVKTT
T3 sequence (chain, as listed by the source): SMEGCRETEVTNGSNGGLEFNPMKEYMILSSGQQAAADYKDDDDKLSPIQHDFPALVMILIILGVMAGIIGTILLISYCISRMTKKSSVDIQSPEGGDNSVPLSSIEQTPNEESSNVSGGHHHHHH
T5 sequence (P21554 whole entry): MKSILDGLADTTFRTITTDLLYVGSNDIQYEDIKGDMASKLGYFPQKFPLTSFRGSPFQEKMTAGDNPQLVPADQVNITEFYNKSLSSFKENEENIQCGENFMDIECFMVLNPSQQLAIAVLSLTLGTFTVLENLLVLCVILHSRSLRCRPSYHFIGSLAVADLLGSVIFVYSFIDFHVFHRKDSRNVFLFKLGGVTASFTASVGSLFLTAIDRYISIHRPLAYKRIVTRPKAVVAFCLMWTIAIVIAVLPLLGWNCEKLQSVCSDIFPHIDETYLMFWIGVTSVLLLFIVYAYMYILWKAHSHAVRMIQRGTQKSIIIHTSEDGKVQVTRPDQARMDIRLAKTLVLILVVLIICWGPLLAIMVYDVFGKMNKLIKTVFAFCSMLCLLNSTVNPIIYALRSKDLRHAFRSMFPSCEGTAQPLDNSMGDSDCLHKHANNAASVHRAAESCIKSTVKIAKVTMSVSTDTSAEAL
T1 sequence (chain, as listed by the source): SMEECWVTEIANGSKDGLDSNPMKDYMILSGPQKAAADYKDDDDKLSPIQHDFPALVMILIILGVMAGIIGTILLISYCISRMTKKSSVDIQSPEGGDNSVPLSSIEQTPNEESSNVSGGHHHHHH
T2 sequence (P34972 whole entry): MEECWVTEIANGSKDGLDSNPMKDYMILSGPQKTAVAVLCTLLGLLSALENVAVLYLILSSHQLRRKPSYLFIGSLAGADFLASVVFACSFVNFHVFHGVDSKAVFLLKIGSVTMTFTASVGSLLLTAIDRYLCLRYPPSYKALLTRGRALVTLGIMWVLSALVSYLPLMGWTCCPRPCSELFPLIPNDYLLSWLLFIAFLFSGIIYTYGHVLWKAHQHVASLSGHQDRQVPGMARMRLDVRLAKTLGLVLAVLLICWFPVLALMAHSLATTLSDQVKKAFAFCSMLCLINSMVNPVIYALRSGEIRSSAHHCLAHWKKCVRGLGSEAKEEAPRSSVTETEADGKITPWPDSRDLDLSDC

B1: Anti-CB2 clone 1/622 (antibody, IgG3, V domains shown)
VH: EVQLQQSGPELVKPGASVKISCKTSGYTFTEYTMHWVRQSHGKSLEWIGGIDRYNGDTYYNQKFKDKATLTVDRSSSTAYMELRSLTSEDSAVYFCARNGAMDYWGQGISVTVSS
VL: DVVMTQTPLSLPVSLGDQASISCRSSQSLVHSNGNTYLHWFLQKPGQSPKLLIYKVSIRFSGVPDRFSGSGSGTDFTLKISRVEAEDLGVYFCSQSTHVPPLTFGAGTKLELKR
binding result (Human_CB2-pANITA3.1): binds | signal to background ratio (human CB2 (full length)): 10 | binding result (Mouse_CB2-pANITA3.1): no binding | binding result (mouse CB2 (full length)): no binding | binding result (human CB1 (full length)): no binding
